Consider two molecules from publication PMC9364023, “In vitro single molecule and bulk phase studies reveal the AP-1 transcription factor cFos binds to DNA without its partner cJun” (The Journal of Biological Chemistry, 2022).

The target in series [1] is cFos bZIP region (137-193) synthetic peptide, C-terminally biotin-tagged (human). Kind of series: Qdot blinking analysis of single molecules on DNA tightropes; Qdot 655 conjugates only; blinks counted in 50 kymographs of 60 s for each protein; dual Poisson model fitted to cJun and cFos together; HSABC buffer; monomer to dimer on DNA.
Series [2] has the same target. Nature of the series: dual-colour single-molecule fluorescence imaging on DNA tightropes; biotinylated peptide conjugated to premixed equimolar streptavidin Qdot 605 and Qdot 655 (100 nM peptide, 200 nM Qdots, diluted 50-fold); bound to Lambda DNA tightropes; HSABC buffer (50 mM Tris pH 7.5, 150 mM KCl, 10 mM MgCl2); room temperature (20 C); dual-coloured spots counted among DNA-bound molecules; monomer to dimer on DNA.

Series [3] concerns the molecule itself. The description is as above.

Where no end group is shown, it is not given here.

Regarding “cFos bZIP region (137-193) synthetic peptide, C-terminally biotin-tagged”, the percent dimer (fit of Qdot blinking) in series [1] was 45.8%. For the same molecule, in series [2], the percent of DNA-bound entities that were dual-colored came to 15%, the percent of DNA-bound molecules dimerized was 30% and the stoichiometry N was found to be 2.

B1: cJun bZIP region (252-308) synthetic peptide, C-terminally biotin-tagged (peptide)
chain: RIKAERKRMRNRIAASKCRKRKLERIARLEEKVKTLKAQNYELASTANMLREQVAQLGAP-biotin
notes: bZIP region of cJun, residues 252-308 as stated; gly-ala-pro spacer before the C-terminal biotin; In the tightrope assays the peptide was conjugated through its biotin to streptavidin-coated Qdot 655 and/or Qdot 605; It holds the bZIP domain only; source: synthetic peptide (PeptideSynthetics)
Consider B1, for which the “stoichiometry N” value in series [3] came out at 2.

By stoichiometry N is commonly meant the number of molecules, sites or subunits per partner or assembly.
